Results taken from patent US20250179196A1 (Janssen / Centocor, published 2025).
Positions count from the first letter of the chain named. Each block holds one binder with its values, some of them ahead of it.

Legend:
[1] = molecular target: T1, rat IL-23R extracellular domain (ECD) protein (rat); experiment: SPR Biacore 8K, supernatant
T1 construct: also called rat IL-23R ECD; F1LX96 amino acids 24-354
T1 chain: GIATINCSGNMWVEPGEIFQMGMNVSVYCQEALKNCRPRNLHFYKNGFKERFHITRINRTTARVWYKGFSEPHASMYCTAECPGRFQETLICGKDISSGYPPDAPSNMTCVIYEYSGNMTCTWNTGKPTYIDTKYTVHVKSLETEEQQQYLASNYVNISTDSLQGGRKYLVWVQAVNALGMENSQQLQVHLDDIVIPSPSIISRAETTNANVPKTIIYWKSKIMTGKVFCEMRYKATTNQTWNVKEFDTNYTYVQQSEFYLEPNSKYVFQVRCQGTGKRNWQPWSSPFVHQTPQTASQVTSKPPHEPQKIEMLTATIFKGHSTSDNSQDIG
In short: (§1)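 Antibodies (~150 RU) were captured and human or rat IL-23R ECD injected at 0.8–500 nM in 5-fold steps, at 25 °C in HBS-P+ with 100 μg/ml BSA. Association ran 3 min at 50 μL/min, followed by 30 min dissociation. Ka, Kd and KD came from a Langmuir 1:1 fit.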

[2] = molecular target: T2, Recombinant human IL-23 receptor (IL-23R) extracellular domain (ECD) protein (human, UniProt Q5VWK5 24-355); experiment: SPR Biacore 8K, supernatant, analysis 2
T2 construct: also called human IL-23R ECD; hu IL-23R ECD
T2 sequence: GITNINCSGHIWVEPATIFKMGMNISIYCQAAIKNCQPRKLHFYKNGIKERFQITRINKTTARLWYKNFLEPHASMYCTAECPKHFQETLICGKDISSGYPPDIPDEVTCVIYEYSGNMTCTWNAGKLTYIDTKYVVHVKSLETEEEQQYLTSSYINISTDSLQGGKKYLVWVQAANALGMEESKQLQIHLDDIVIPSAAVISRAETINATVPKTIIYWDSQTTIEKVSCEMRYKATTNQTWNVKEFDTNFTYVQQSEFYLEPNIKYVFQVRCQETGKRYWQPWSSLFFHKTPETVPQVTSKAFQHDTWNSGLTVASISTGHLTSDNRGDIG
In short: as §1

[3] = molecular target: T2, Recombinant human IL-23 receptor …; experiment: SPR Biacore 8K, supernatant, analysis 1
In short: as §1

[4] = molecular target: T2, Recombinant human IL-23 receptor …; experiment: SPR Biacore 8K, purified, analysis 1
Description: (§2) Affinity by SPR using Biacore 8K. Affinity measurements using Surface Plasmon Resonance (SPR) were performed using a Biacore 8K system (Cytiva). […] Approximately 9000-10000 RU (response units) of mAbs were immobilized. The kinetic experiments were performed at 25° C. in running buffer 1× of (HBS-P+ Buffer 10× (Cytiva #BR100671)+100 μg/ml BSA). To perform kinetic experiments, approximately 150 RU of mAbs were captured followed by injections of human IL-23R or rat IL-23R at concentrations ranging from 0.8 nM to 500 nM (in a 5-fold serial dilution). The association phase was monitored for 3 minutes at 50 μL/min, then followed by 30 minutes of buffer flow (dissociation phase). […] The collected data were processed using Biacore insight Evaluation software (Version 3.0.12.15655). The kinetic analysis of the data was performed using a Langmuir 1:1 binding model. The result for each mAb was reported in the format of Ka (On-rate), Kd (Off-rate) and KD (equilibrium dissociation constant).

[5] = molecular target: T2, Recombinant human IL-23 receptor …; experiment: SPR Biacore 8K, purified, analysis 2
Description: as §2

Kd [1]: 92100 pM | koff [1]: 0.00548 s⁻¹ | kon [1]: 59500 M⁻¹ s⁻¹ | Kd [2]: 2330 pM | koff [2]: 0.000318 s⁻¹ | kon [2]: 137000 M⁻¹ s⁻¹ | Kd [3]: 1640 pM | koff [3]: 0.000226 s⁻¹ | kon [3]: 138000 M⁻¹ s⁻¹
B1: I23RB153 (antibody, mouse IgG2a, kappa, V domains shown)
VH: EVKLVESGGGLVQPGGSLKLSCAASGFTFSSDTMSWVRQTPEKRLELVAEISSNGGSTYHIDTVKGRFTISRDNAKNTLYLQMSSLKSEDTAMYYCASPGYPWFAYWGQGTTVTVSA
VL: DIVMTQSHRFMSTSVGERVSITCKASQDVGNAVAWYQQKPGQSPKLLIYWTSTRHNGVPDRFTGSGSGTDFTLTISNVQGEDLADYFCQQYNRYPLTFGSGTKLEIKR
notes: mouse immunization; mouse IgG2a/kappa

binding result [1]: no binding (tested: 500 nM) | Kd [2]: 110 pM | koff [2]: 4.58e-05 s⁻¹ | kon [2]: 416000 M⁻¹ s⁻¹ | Kd [4]: < 59.7 pM | koff [4]: < 2.89e-05 s⁻¹ | kon [4]: 484000 M⁻¹ s⁻¹ | Kd [5]: < 72.3 pM | koff [5]: < 2.89e-05 s⁻¹ | kon [5]: 400000 M⁻¹ s⁻¹
B2: I23RB65 (antibody, mouse IgG2a, kappa, V domains shown)
VH: EVQLQQSGPELVKPGASVKISCKASGYTFTDHTMDWVKQSHGKSLEWIGYIYPKSGNAAYSQKFKSEATLTVDKSSSTAYMEFHSLTSEDSAVYYCARWGLRRDGFTYWGQGTSVTVSS
VL: QIVLTQSPASLAVSLGQRATISCRASQSVSTSSYNYIHWYQQKPGQPPKLLIKYASNLESGVPARFSGSGSGTDFTLNIHPVEEDDTATYYCQHTWEIPYTFGSGTKLEIKR
notes: as for B1

binding result [1]: no binding (tested: 500 nM) | Kd [2]: < 124 pM | koff [2]: < 2.89e-05 s⁻¹ | kon [2]: 233000 M⁻¹ s⁻¹ | Kd [4]: < 109 pM | koff [4]: < 2.89e-05 s⁻¹ | kon [4]: 265000 M⁻¹ s⁻¹ | Kd [5]: < 120 pM | koff [5]: < 2.89e-05 s⁻¹ | kon [5]: 240000 M⁻¹ s⁻¹
B3: I23RB92 (antibody, mouse IgG2a, kappa, V domains shown)
VH: EVQLQQSGPEVVKPGASVKISCKASGYTFTDHTMDWVKQSHGKNLEWIGYIYPKSGGTGYNQKFKNKATLTVDKSSSTAYMEFHSLTSDDSAVYYCARWGLRRDGFVYWGQGTLVTVSA
VL: B2 VL with Q1D, V3K, L4M, S33K, N35D, P44S, K49R, D85E, I110L
notes: as for B1

binding result [1]: no binding (tested: 500 nM) | Kd [2]: 80.5 pM | koff [2]: 3.9e-05 s⁻¹ | kon [2]: 484000 M⁻¹ s⁻¹ | Kd [4]: 89.1 pM | koff [4]: 5.62e-05 s⁻¹ | kon [4]: 631000 M⁻¹ s⁻¹ | Kd [5]: 85.9 pM | koff [5]: 4.14e-05 s⁻¹ | kon [5]: 482000 M⁻¹ s⁻¹
B4: I23RB76 (antibody, mouse IgG2a, kappa, V domains shown)
VH: EVQLQQSGPELVKPGASVKMSCKASGYTFTDYYMNWMKQSHGKSLEWIGYISPKNGRTGYNQKFKGKATLTVDKSSTTAYMELRSLTSEDSAVYYCAKSNGYYALDYWGQGTTVTVSS
VL: DIVLTQSPATLCVTPGETVSLSCRASQNIYKNLHWFQQKSHRSPRLLIKYASDSISGIPSRFTGSGSGTDYTLSINSVKPEDEGIYYCLQGYSTPWTFGGGTKLEIKR
notes: as for B1

binding result [1]: no binding (tested: 500 nM) | Kd [2]: 1000 pM | koff [2]: 0.000686 s⁻¹ | kon [2]: 685000 M⁻¹ s⁻¹ | Kd [4]: 800 pM | koff [4]: 0.00063 s⁻¹ | kon [4]: 787000 M⁻¹ s⁻¹ | Kd [5]: 1150 pM | koff [5]: 0.000753 s⁻¹ | kon [5]: 656000 M⁻¹ s⁻¹
B5: I23RB94 (antibody, mouse IgG2a, kappa, V domains shown)
VH: DVQLQESGPELKKPGETVKISCKASGYTFTNYGMNWVRQAPGKSLKWMGWINTNTGEPAYAEEFKGRFAFSLETSASTAYLQINNLKNEDMATYFCARVRQTARATRGYFDVWGTGTTVTVSS
VL: DIVMTQSHKFMSTSVGDRVSITCKASQDVNTAVAWYQQKPGQSPKLLIYSAFYRYPGVPDRFTGSGSGTDFTFTINSVQAEDLAVYCCQQHYTSPLTFGDGTRLEIKR
notes: as for B1

binding result [1]: no binding (tested: 500 nM) | Kd [2]: 588 pM | koff [2]: 0.000259 s⁻¹ | kon [2]: 441000 M⁻¹ s⁻¹ | Kd [3]: 403 pM | koff [3]: 0.000218 s⁻¹ | kon [3]: 542000 M⁻¹ s⁻¹
B6: I23RB156 (antibody, mouse IgG2a, kappa, V domains shown)
VH: QVQLKESGPGLVAPSQSLSITCTVSGFSLTSYAINWVRQPPGKGLEWLGVIWTGGGTNYNSVFKSRLSISKDNSKSQIFLKMISLQTDDTARYYCARNRDYSNYRWYFDVWGAGTTLTVSS
VL: B5 VL with N30S, Q42R, P56T, N76G, C87Y, T93S, S94I, D100A, R103K, I106L
notes: as for B1

binding result [1]: no binding (tested: 500 nM) | Kd [2]: 766 pM | koff [2]: 0.000382 s⁻¹ | kon [2]: 498000 M⁻¹ s⁻¹ | Kd [3]: 874 pM | koff [3]: 0.000459 s⁻¹ | kon [3]: 525000 M⁻¹ s⁻¹
B7: I23RB148 (antibody, mouse IgG2a, kappa, V domains shown)
VH: DVQLQESGPDLVKPSQSLSLTCTVTGYSITSGYNWHWIRQFPGNKLEWMGYIHSSGTTNYSPSLRSRLSITRDTSKNQFFLQLNSVTTEDTATYYCTRQLGLKAMEYWGQGTTLTVSS
VL: DIVMTQSHKFMSTSVGDRVSLTCKASQEVRTAVAWYQQKPGQPPKLLIYSASYRYTGVPDRFTGSGSGTDFTFTIISVQAEDLAVYYCQQHYTTPYSFGSGTKLEIKR
notes: as for B1

binding result [1]: no binding (tested: 500 nM) | Kd [2]: 112000 pM | koff [2]: 0.0376 s⁻¹ | kon [2]: 334000 M⁻¹ s⁻¹ | Kd [3]: 96500 pM | koff [3]: 0.0329 s⁻¹ | kon [3]: 341000 M⁻¹ s⁻¹
B8: I23RB150 (antibody, mouse IgG2a, kappa, V domains shown)
VH: QIQLVQSGPELKKPGETVKISCKASAYTFTNYGMNWVKQAPGKGLKWMGWIKTNTGEPTYAEEFKGRFAFSLETSASTAYLQINNLKNEDTATYFCARSRQLGLRYYFDYWGQGTTLTVSS
VL: DIVMTQSHKFMSTSVGGRVSITCKASQDVSTAVAWYQQKPGQSPRLLIYSASYRYTGVPDRFTGSGSGTDFTFTISSVQAEDLAVFYCQQHYSTPYTFGSGTRLEIKR
notes: as for B1

Kd [2]: 108 pM | koff [2]: 6.29e-05 s⁻¹ | kon [2]: 582000 M⁻¹ s⁻¹ | Kd [4]: 72.5 pM | koff [4]: 5.76e-05 s⁻¹ | kon [4]: 795000 M⁻¹ s⁻¹ | Kd [5]: 117 pM | koff [5]: 6.25e-05 s⁻¹ | kon [5]: 535000 M⁻¹ s⁻¹
B9: I23RB42 (antibody, mouse IgG2a, kappa, V domains shown)
VH: EVQLQQSGAELVKPGASVKISCKASGYSFTDYIMNWVKQSHGKSLEWIGNINPYFGFTSYNQEFKGKATLTVDKSSSTAYMLLNSLTSEDSAVYYCSRGSYYGYETFFDYWGQGTTLTVSS
VL: DIVLTQTAPSVPVTPGESVSISCRSSKSLLHSNGNTYLYWFLQRPGQSPQLLIYRMSNLASGVPDRFSGSGSGTAFTLRISRVEAEDVGVYYCMQHLEYPYTFGSGTRLEIKR
notes: as for B1

binding result [1]: no binding (tested: 500 nM) | Kd [2]: 53300 pM | koff [2]: 0.00277 s⁻¹ | kon [2]: 52000 M⁻¹ s⁻¹ | Kd [3]: 30600 pM | koff [3]: 0.00272 s⁻¹ | kon [3]: 89000 M⁻¹ s⁻¹
B10: I23RB144 (antibody, mouse IgG2a, kappa, V domains shown)
VH: EVQLQQSGPELVKPGASVKMSCKASGYTFTSYIIHWVKQKPGQGLEWIGYIDPYNDDTKYNEKFKGKATLTSDKSSSTAYMEFSSLTSEDSAVYYCARLGSINYYDGSYFDYWGQGTSVTVSS
VL: DIVMTQSPLTLSVIIGQSASISCKSSQSLLDSDGKTYLNWLLQRPGQSPKRLMYLVSKLDSGVPDRFTGSGSGTDFTLKISRVEAEDLGVYYCWQGIHFPLTFGSGTRLEIKR
notes: as for B1

binding result [1]: no binding (tested: 500 nM) | Kd [2]: < 121 pM | koff [2]: < 2.89e-05 s⁻¹ | kon [2]: 239000 M⁻¹ s⁻¹ | Kd [3]: < 78.4 pM | koff [3]: < 2.89e-05 s⁻¹ | kon [3]: 369000 M⁻¹ s⁻¹
B11: I23RB155 (antibody, mouse IgG2a, kappa, V domains shown)
VH: QVQLKESGPGLVKPSQSLSLTCSVTGYSITSGHSWNWIRQFPGNKLEWMGYISYDGTNDYNPSLKNRISITRDTSKNQFFLNLNSVTTEDTVTYYCARGGGYYGGTYRVFADWGQGTTLTVSS
VL: QIVLSQSPASLAVSLGQRATISCRTSESVDTYGNSFIYWYQQKPGQPPKLLIYRASNLESGIPARFSGSGSRTDFTLTINPVEADDVATYYCQQGNKDPYTFGSGTKLEMKR
notes: as for B1
